How the values were obtained:
NF-kB p50 [1] = biological target: T1, NF-kB p50 (UniProt P19838 1-433); experiment: EMSA
NF-kB p50 [2] = biological target: T1, NF-kB p50; experiment: competition

T1 sequence (P19838 1-433): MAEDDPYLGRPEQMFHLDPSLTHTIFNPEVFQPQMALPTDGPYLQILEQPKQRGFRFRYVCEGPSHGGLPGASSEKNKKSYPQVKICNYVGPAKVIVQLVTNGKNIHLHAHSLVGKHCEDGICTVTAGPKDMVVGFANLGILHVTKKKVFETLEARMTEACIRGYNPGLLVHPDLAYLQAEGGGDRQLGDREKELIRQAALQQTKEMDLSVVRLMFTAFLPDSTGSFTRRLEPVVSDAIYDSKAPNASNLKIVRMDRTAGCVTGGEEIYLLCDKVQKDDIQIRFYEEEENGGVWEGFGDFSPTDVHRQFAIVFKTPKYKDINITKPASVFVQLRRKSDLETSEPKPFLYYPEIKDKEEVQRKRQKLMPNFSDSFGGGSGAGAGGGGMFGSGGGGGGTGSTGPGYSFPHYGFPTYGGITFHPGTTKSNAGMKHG

Binder	binding result (NF-kB p50 [1])	binding result (NF-kB p50 [2])
Probe C (rs28416813 C allele, IFNL3 5'UTR) (dsDNA, BrdU (written T) at positions 5 and 34 of strand 1) DNA 1: CCCCTGCCCTCAGTGGGCAGCCTCTGCATTCCCTCAGCTCCCTTTCTCTCTGTGA DNA 2: TCACAGAGAGAAAGGGAGCTGAGGGAATGCAGAGGCTGCCCACTGAGGGCAGGGG	binds	
C-oligo NF-kB (consensus cold competitor) (dsDNA) DNA 1: CCGCTGGGACTTTCCAGGA DNA 2: TCCTGGAAAGTCCCAGCGG		binds
